Measured values published in patent US20250205358A1, “PHOTOACTIVATABLE NANOPARTICLES AND USES THEREOF AS AGENTS FOR IMMUNOTHERAPY COMBINATIONS” (Board of Regents, The University of Texas System, priority 2023, published 2025).

B1: mIFN-γ: mouse Interferon Gamma Protein (Sino Biological) (protein, UniProt P01580 23-155, looked up)
Interferon gamma: HGTVIESLESLNNYFNSSGIDVEEKSLFLDIWRNWQKDGDMKILQSQIISFYLRLFEVLKDNQAISNNISVIESHLITTFFSNSKAKKDAFMSIAKFEVNNPQVQRQAFNELIRVVHQLLPESSLRKRKRSRC

How the values were obtained:
[1] = test system: PDAC; details: PDAC patients, standard of care; cited from earlier work
[2] = test system: PD-L1; assay: Fold increase in PD-L1 expression with mIFN-γ (flow cytometry); format: cell-based, murine; details: 40 ng/ml, 24 h
Description: Fold increase in PD-L1 expression and binding specificity of iTPALs: Confluent AT84, LLC, MC38, ID8, CT1BA5 and BMFA3 cells were washed in PBS, trypsinized, and collected in their respective media. The cells were counted and diluted to seed 1.5×10^5 cells per well in a 6 well plate (Corning) overnight. The next day, the media was replaced with fresh media containing 40 ng/ml of mIFN-γ and incubated for an additional 24 h. The cells were then trypsinized, dispersed in their respective media and counted using a cell counter (Bio-Rad). Cells were diluted in their respective media to obtain a concentration of 5×10^5 cells/ml. Then, 100 μl of the counted cells were placed in the 1.5 ml microcentrifuge tubes. To calculate the fold increase in PD-L1 expression, 100 μl of 40 µg/ml α-PD-L1 equivalent of α-PD-L1-AF488 were then added to the cells whereas to monitor the binding specificity of iTPALs (17α), 100 μl of 500 nM BPD-PC equivalent of either 100 μl PALs or TPALs (17α) added to the cells and incubated at 37° C. for 30 mins in the dark. The cells were then pelleted by […] for 5 mins at 1000×g, and the supernatants containing free unbound PALs and iTPALs (17α) were discarded. The cells were then resuspended in 300 μl of FACS buffer and transferred into flow cytometry tubes. For each condition, 10,000 cells were analyzed using a BD Fortessa flow cytometry analyzer with a 405 nm laser/710 nm bandpass detector pair for BPD-PC fluorescence and a 488 nm laser/530 nm detector pair for AF488 fluorescence. The data was then analyzed using FlowJo to calculate the median fluorescence of BPD-PC and AF488. The increase in PD-L1 expression after treating the cells with mIFN-γ was calculated as shown in Equation 1 below and the binding specificity of iTPALs (17α) was calculated as shown in Equation 2 below.

Molecule | Overall survival [1] [months] | Increase in PD-L1 expression ([2]; AT84 head and neck cancer cells) [fold] | Increase in PD-L1 expression ([2]; BMFA3 PDAC cells) [fold] | Increase in PD-L1 expression ([2]; CT1BA5 PDAC cells) [fold] | Increase in PD-L1 expression ([2]; ID8 ovarian cancer cells) [fold] | Increase in PD-L1 expression ([2]; LLC lung cancer cells) [fold] | Increase in PD-L1 expression ([2]; MC38 colon cancer cells) [fold]
FOLFIRINOX | 11.1 |  |  |  |  |  | 
B1 |  | 1.8 | 2.5 | 1.5 | 2.9 | 1.4 | 1.8
